The target in the assay is T1, PSD-95 PDZ1-PDZ2 (Mus musculus, UniProt Q62108).
T1 construct: HaloTag-PDZ1+PDZ2 fusion protein (residues 61 to 249 of Mus musculus PSD-95); HaloTag (N); made in house
Description: Binding of cypin to PSD-95 PDZ1-PDZ2 affinity resin. The source says: An affinity column was used substituted with a HaloTag-PDZ1+PDZ2 fusion protein (residues 61 to 249 of Mus musculus PSD-95) to purify heterologously expressed human cypin. Cypin was expressed in E. coli either as the free protein or fused to an N-terminal MBP, and purified from the bacterial supernate on the PDZ1-PDZ2 Domain-Affinity Resin. Both cypin and MBP-cypin were purified to >99% homogeneity.
For the experiment, full length cypin (guanine deaminase, Homo sapiens: AA 1-454) or MBP-cypin fusion proteins were expressed in BL21(DE3) E. coli cells. Single colonies of BL21(DE3) cells harboring pJExpress414 plasmids containing cypin or MBP-cypin genes were grown overnight at 37° C. in 5 ml of lysogeny broth (LB) (Cat. No. L9110, Teknova, Hollister, Calif.) supplemented with 100 ug/ml carbenicillin. […] Bacterial cell pellets (0.4-2.5 grams) containing cypin or MBP-cypin were resuspended in 5 ml/g cell paste of BugBuster Lysis Buffer [1× BugBuster (Cat. No. 70921, EMD Millipore, Billerica Mass.), 50 mM HEPES, 150 mM NaCl, 5 mM TCEP, 0.5 mM EDTA, 10 mM MgCl2, 2 mM PMSF, Complete Protease Inhibitor supplemented with 25 U/ml Benzonase and 10 U/ml ReadyLyse]. […] Eluted protein was analyzed on 4-12% bis-tris SDS-PAGE gels and proteins were detected by Gel Code Blue staining.

Experimental findings from patent US20140329706A1, “AFFINITY TAGS, AND RELATED AFFINITY LIGANDS, ENGINEERED PROTEINS, MODIFIED SUPPORTS, COMPOSITIONS, METHODS AND SYSTEMS” (CALIFORNIA INSTITUTE OF TECHNOLOGY, priority 2013, published 2014) are described below.

T1 sequence (Q62108 61-249): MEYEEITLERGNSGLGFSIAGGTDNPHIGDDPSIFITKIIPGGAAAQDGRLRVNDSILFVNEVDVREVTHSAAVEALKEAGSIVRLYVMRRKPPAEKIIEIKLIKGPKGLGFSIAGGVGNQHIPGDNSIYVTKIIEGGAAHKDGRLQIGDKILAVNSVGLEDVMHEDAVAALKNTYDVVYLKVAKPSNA

B1: untagged cypin: full length cypin (guanine deaminase, Homo sapiens: AA 1-454) (protein)
chain: MCAAQMPPLAHIFRGTFVHSTWTCPMEVLRDHLLGVSDSGKIVFLEEASQQEKLAKEWCFKPCEIRELSHHEFFMPGLVDTHIHASQYSFAGSSIDLPLLEWLTKYTFPAEHRFQNIDFAEEVYTRVVRRTLKNGTTTACYFATIHTDSSLLLADITDKFGQRAFVGKVCMDLNDTFPEYKETTEESIKETERFVSEMLQKNYSRVKPIVTPRFSLSCSETLMGELGNIAKTRDLHIQSHISENRDEVEAVKNLYPSYKNYTSVYDKNNLLTNKTVMAHGCYLSAEELNVFHERGASIAHCPNSNLSLSSGFLNVLEVLKHEVKIGLGTDVAGGYSYSMLDAIRRAVMVSNILLINKVNEKSLTLKEVFRLATLGGSQALGLDGEIGNFEVGKEFDAILINPKASDSPIDLFYGDFFGDISEAVIQKFLYLGDDRNIEEVYVGGKQVVPFSSSV
With B1, the “binding to solid support PDZ1 and PDZ2 domains” value is reported as “able to bind with strong affinity”.

B2: MBP-cypin: cypin fused to an N-terminal maltose binding protein (protein)
chain: MCAAQMPPLAHIFRGTFVHSTWTCPMEVLRDHLLGVSDSGKIVFLEEASQQEKLAKEWCFKPCEIRELSHHEFFMPGLVDTHIHASQYSFAGSSIDLPLLEWLTKYTFPAEHRFQNIDFAEEVYTRVVRRTLKNGTTTACYFATIHTDSSLLLADITDKFGQRAFVGKVCMDLNDTFPEYKETTEESIKETERFVSEMLQKNYSRVKPIVTPRFSLSCSETLMGELGNIAKTRDLHIQSHISENRDEVEAVKNLYPSYKNYTSVYDKNNLLTNKTVMAHGCYLSAEELNVFHERGASIAHCPNSNLSLSSGFLNVLEVLKHEVKIGLGTDVAGGYSYSMLDAIRRAVMVSNILLINKVNEKSLTLKEVFRLATLGGSQALGLDGEIGNFEVGKEFDAILINPKASDSPIDLFYGDFFGDISEAVIQKFLYLGDDRNIEEVYVGGKQVVPFSSSV
modifications: left off: large carriers
Turning to B2, the “binding to solid support PDZ1 and PDZ2 domains” value is “able to bind with strong affinity”.
